Data taken from US12295987B2, “Method of using a GIP/GLP1 co-agonist for diabetes” (Eli Lilly and Company, priority 2018, dated 2025).

target: T1, human gastric inhibitory peptide receptor (hGIPR) (Homo sapiens, UniProt P48546); experiment: cAMP pharmacological functional assay in presence of 0.1% casein, hGIPR; type: cell-based; conditions: ratio of hGIPR to hGLP1R cAMP EC50 ratios
T1 construct: expressed in transfected cells; host or cells: HEK293
T1 sequence (P48546 22-466): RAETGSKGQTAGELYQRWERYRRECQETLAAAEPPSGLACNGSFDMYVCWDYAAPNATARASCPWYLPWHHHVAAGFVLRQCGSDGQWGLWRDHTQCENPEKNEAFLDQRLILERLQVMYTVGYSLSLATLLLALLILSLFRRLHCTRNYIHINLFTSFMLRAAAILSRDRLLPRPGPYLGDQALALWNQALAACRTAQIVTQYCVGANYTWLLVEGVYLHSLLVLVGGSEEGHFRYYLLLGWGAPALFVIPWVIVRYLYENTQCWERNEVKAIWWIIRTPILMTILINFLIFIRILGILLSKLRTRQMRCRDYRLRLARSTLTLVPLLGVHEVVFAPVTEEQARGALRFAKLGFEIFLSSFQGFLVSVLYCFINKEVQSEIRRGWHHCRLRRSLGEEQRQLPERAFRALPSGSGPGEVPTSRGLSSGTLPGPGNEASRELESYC

In order of falling “[hGIPR/hGLP1R] EC50 Ratio” value:
1. Y-Aib-EGT-αMeF-TSDYSI-αMeL-LDKK((2-[2-(2-Amino-ethoxy)-ethoxy]-acetyl)2-(γGlu)-CO—(CH2)18—CO2H)AQ-Aib-Aib-FIEYLIEGGPSSGAPPPS-NH2 (YXEGTXTSDYSIXLDKKAQXXFIEYLIEGGPSSGAPPPS; Aib, αMeF, αMeL; acylated lysine C20 diacid; amide; (2)..(2) Xaa at position 2 is Aib; (6)..(6) Xaa at position 6 is alpha-methyl-Phe; (13)..(13) Xaa at position 13 is alpha-methyl-Leu; MOD_RES (17)..(17) Lys at position 17 is chemically modified by conjugation of the epsilon-amino group of the Lys side chain with (2-[2-(2-amino-ethoxy)-ethoxy]-acetyl)2-(gamma-Glu)-CO-(CH2)18- CO2H; (20)..(20) Xaa at position 20 is Aib; (21)..(21) Xaa at position 2) [Peptide 143]  3.89
2. Y-Aib-EGT-αMeF-TSDYSI-αMeL-LDKK((2-[2-(2-Amino-ethoxy)-ethoxy]-acetyl)2-(γGlu)-CO—(CH2)18—CO2H)AQ-Aib-Aad-FIEYLIEGGPSSGAPPPS-NH2 (YXEGTXTSDYSIXLDKKAQXXFIEYLIEGGPSSGAPPPS; Aib, Aad, αMeF, αMeL; acylated lysine C20 diacid; amide; (2)..(2) Xaa at position 2 is Aib; (6)..(6) Xaa at position 6 is alpha-methyl-Phe; (13)..(13) Xaa at position 13 is alpha-methyl-Leu; MOD_RES (17)..(17) Lys at position 17 is chemically modified by conjugation of the epsilon-amino group of the Lys side chain with (2-[2-(2-amino-ethoxy)-ethoxy]-acetyl)2-(gamma-Glu)-CO-(CH2)18- CO2H; (20)..(20) Xaa at position 20 is Aib; (21)..(21) Xaa at position 2) [Peptide 137]  3.58
3. Y-Aib-EGT-αMeF-TSDYSI-αMeL-LDKK((2-[2-(2-Amino-ethoxy)-ethoxy]-acetyl)2-(γGlu)-CO—(CH2)18—CO2H)AQ-Aib-AFIEYLIEGGPSSGAPPPS-NH2 (YXEGTXTSDYSIXLDKKAQXAFIEYLIEGGPSSGAPPPS; Aib, αMeF, αMeL, lipidated Lys, C-terminal amide; (2)..(2) Xaa at position 2 is Aib; (6)..(6) Xaa at position 6 is alpha-methyl-Phe; (13)..(13) Xaa at position 13 is alpha-methyl-Leu; MOD_RES (17)..(17) Lys at position 17 is chemically modified by conjugation of the epsilon-amino group of the Lys side chain with (2-[2-(2-amino-ethoxy)-ethoxy]-acetyl)2-(gamma-Glu)-CO-(CH2)18- CO2H; (20)..(20) Xaa at position 20 is Aib; MOD_RES (39)..(39) Ser at po) [Peptide 69]  3.21
4. Y-Aib-EGT-αMeF-TSDYSI-αMeL-LDKK((2-[2-(2-Amino-ethoxy)-ethoxy]-acetyl)2-(γGlu)-CO—(CH2)18—CO2H)AQ-Aib-AFIEYLIEAGPSSGAPPPS-NH2 (YXEGTXTSDYSIXLDKKAQXAFIEYLIEAGPSSGAPPPS; Aib, αMeF, αMeL; acylated lysine C20 diacid; amide; (2)..(2) Xaa at position 2 is Aib; (6)..(6) Xaa at position 6 is alpha-methyl-Phe; (13)..(13) Xaa at position 13 is alpha-methyl-Leu; MOD_RES (17)..(17) Lys at position 17 is chemically modified by conjugation of the epsilon-amino group of the Lys side chain with (2-[2-(2-amino-ethoxy)-ethoxy]-acetyl)2-(gamma-Glu)-CO-(CH2)18- CO2H; (20)..(20) Xaa at position 20 is Aib; MOD_RES (39)..(39) Ser at po) [Peptide 126]  2.91
